Results as given in patent US20090130123A1 (published 2009).

Assays:
[1] = biological target: T1, WNV E protein DIII displayed on yeast (Saccharomyces cerevisiae; West Nile …, UniProt Q9Q6P4 586-705); assay: flow cytometry on yeast displaying WNV E DIII (pYD1); % positive cells
T1 construct: domain: DIII; also called WNV DIII
T1 sequence: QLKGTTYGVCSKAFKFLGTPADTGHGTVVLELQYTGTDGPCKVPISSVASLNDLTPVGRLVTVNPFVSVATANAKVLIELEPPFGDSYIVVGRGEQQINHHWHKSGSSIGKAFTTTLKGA

[2] = biological target: West Nile virus E protein on WNV strain 2741 virions (West Nile virus, UniProt Q9Q6P4 291-791); assay: cell-based or functional assay
Sequence of West Nile virus E protein on WNV strain 2741 virions (Q9Q6P4 291-791 limits assumed): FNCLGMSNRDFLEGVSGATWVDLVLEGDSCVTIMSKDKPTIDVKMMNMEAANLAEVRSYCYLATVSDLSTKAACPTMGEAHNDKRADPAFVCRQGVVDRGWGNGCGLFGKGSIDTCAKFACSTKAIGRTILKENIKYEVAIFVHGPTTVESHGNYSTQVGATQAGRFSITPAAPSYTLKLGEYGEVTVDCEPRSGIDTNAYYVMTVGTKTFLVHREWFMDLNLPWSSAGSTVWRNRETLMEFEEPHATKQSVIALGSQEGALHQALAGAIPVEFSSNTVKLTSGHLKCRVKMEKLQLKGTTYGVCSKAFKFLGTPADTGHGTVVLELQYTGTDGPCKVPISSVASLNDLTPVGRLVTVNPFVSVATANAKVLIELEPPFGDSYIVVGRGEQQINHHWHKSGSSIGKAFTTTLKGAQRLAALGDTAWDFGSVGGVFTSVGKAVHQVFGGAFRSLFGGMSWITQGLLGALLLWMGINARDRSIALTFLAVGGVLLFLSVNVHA

[3] = biological target: T2, Recombinant WNV-E protein ectodomain (West Nile virus, UniProt Q9Q6P4 291-700); assay: SPR (Biacore 3000); scFv on NTA chip via His tag, rWNV-E in solution
T2 construct: extracellular domain; also called rWNV-E; WNE
T2 sequence (looked up): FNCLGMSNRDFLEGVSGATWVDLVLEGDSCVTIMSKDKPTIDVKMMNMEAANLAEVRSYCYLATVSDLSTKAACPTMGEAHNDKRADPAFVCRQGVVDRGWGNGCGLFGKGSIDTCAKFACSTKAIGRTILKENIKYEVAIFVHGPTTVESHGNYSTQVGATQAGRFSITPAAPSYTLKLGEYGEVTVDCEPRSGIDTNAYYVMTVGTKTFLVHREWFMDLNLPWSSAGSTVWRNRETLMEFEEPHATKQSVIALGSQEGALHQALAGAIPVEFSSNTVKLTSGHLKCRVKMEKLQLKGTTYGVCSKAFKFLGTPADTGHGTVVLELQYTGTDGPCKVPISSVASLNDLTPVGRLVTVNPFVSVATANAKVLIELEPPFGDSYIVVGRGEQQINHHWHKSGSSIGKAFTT

[4] = biological target: T2, Recombinant WNV-E protein ectodomain
[5] = biological target: T2, Recombinant WNV-E protein ectodomain; assay: SPR (Biacore); scFv-Fc captured by goat anti-human IgG on CM4 chip, rWNV-E in solution

B1: 10 (Fc fusion)
scFv-Fc chain: QVQLVQSGAEVKKPGSSVKVSCKASGYTFSGYSTHWLRQVPGQGLEWIGWDNPSSGDTTYAENFRGRVTLTRDTSITTDYLEVRGLRSDDTAVYYCARGGDDYSFDHWGQGTLVTVSSSGGGSGGGGSGGGGSQTVVTQEPSFSVSPGGTITLTCGLSSGSVFTSYYPSWYQQTPGQAPRTLIYSTNTRSSGVPDRFSGSILGNKAALTITGAQADDESDYYCVLYMGSGIGVFGTGTKVTVLG
notes: also called scFv-Fc 10; 10 scFv-Fc
B1: no binding [1].

B2: scFv-Fc 71 (Fc fusion)
chain: QVQLVQSGAEVKKPGASVKVSCKASGYTFSGYSTHWLRQVPGQGLEWIGWDNPSSGDTTYAENFRGRVTLTRDTSITTDYLEVRGLRSDDTAVYYCARGGDDYSFDHWGQGTLVTVSSGGGGSGGGGSGGGGSSYELTQPPSASGTTGQRVTISCSGSSSNIGSNTVNWYQQLPGTAPKLLIYSNNQRPSGVPDRLSGSKSGTSASLAISGLQSEDEADYYCAAWDARLTGPLFGGGTKLSVLR
notes: also called 71 scFv-Fc
In the case of B2, the “PRNT80 titer (µg/ml), plaque reduction neutralization of WNV on Vero cells” value [2] is reported as 2.5 µg/mL and the binding result [1] is reported as “no binding”.

B3: scFv-Fc 73 (Fc fusion)
chain: QVQLVQSGAEVKKPGASVKVSCKASGYTFSGYSTHWLRQVPGQGLEWIGWDNPSSGDTTYAENFRGRVTLTRDTSITTDYLEVRGLRSDDTAVYYCARGGDDYSFDHWGQGTLVTVSSGGGGSGGGGSGGGGSSYELTQPPSASGTPGQRVTISCSGSSSNIGSNTVNWYQQLPGTAPKLLIYSNNQRPSGVPDRFSGSKSGTSASLAISGLQSEDEADYYCAAWDARLTGPLFGGGTKLSVLR
notes: also called 73 scFv-Fc
With B3 the “PRNT80 titer (µg/ml), plaque reduction neutralization of WNV on Vero cells” value [2] was 1.25 µg/mL and the binding result [1] was “no binding”.

B4: scFv 69 (scFv, not shown: small tags and cut ends)
scFv: MAQVQLVQSGAEVKEPGSSVKVSCKASGGTFSNYPISWVRQAPGQGLEWMGGIIPITNSPGYAQKFQGRVTISADESTGTVYMELSSLRSEDTAIYYCAKDPNRYESGVLHYWHGLDVWGQGTTVTVSSGGGGSGGGGSGGGGSLPVLTQPPSASGTPGQTVTLSCSGSSSNIGSNTVNWYQQLPGTAPKLLIYSNNQRPSGVPDRFSASKSGTSASLAITGLQAEDEADYFCAAWDDSLVYVFGTGTKVTVLGQPKAAPSAAAEQKLISEEDL
notes: also called 69 scFv; antibody 69
Binder B4 has a Ka [3] of 1.69e+07 M⁻¹ and a Kd [3] of 59.2 nM.

B5: scFv 85 (scFv, not shown: small tags and cut ends)
scFv: MAQVQLVQSGAEVKKPGASVKVSCKASGYTFSGYSTHWLRQVPGQGLEWIGWDNPSSGDTTYAENFRGRVTLTRDTSITTDYLEVRGLRSDDTAVYYCARGGDDYSFDHWGQGTLVTVSSGGGGSGGGGSGGGGSSSELTQDPAVSVALGQTVTITCQGGGLRNYYASWYQQKPGQAPVLLVYGRDNRPSGIPDRFSGSSSGNTASLTITGAQAEDEADYYCNSRDSSGNHLVFGGGTKLTVLGQPKATPSAAAEQKLISEEDL
notes: also called 85 scFv; antibody 85
B5 was tested, and the Ka [3] was 7.45e+08 M⁻¹, the Kd [3] was 1.34 nM and the koff [3] was 0.00673 s⁻¹. For the same binder, the kon [3] was 5.01e+06 M⁻¹ s⁻¹.

B6: scFv 11 (scFv)
scFv: MAQVQLVQSGAEVKKPGASVKVSCKASGYTFSGYSTHWLRQVPGQGLEWIGWDNPSSGDTTYAENFRGRVTLTRDTSITTDYLEVRGLRSDDTAVYYCARGGDDYSFDHWGQGTLVTVSSGGGGSGGGGSGGGGSSSELTQDPAVSVALGQTVRITCRGDSLRSYYASWYQQKPGQAPVLVIYGENNRPSGIPDRFSGSSSGDTASLTITGAQAEDEADYYCNSRDSSDHLLLFGGGTKLTVLGQPKATPSAAAEQKLISEEDL
notes: also called 11 scFv; antibody 11
With B6 the Ka [3] was 2.03e+08 M⁻¹, the Kd [3] was 4.92 nM and the koff [3] was 0.00161 s⁻¹. It also gave a kon [3] of 326000 M⁻¹ s⁻¹.

B7: scFv 71 (scFv)
scFv: MAQVQLVQSGAEVKKPGASVKVSCKASGYTFSGYSTHWLRQVPGQGLEWIGWDNPSSGDTTYAENFRGRVTLTRDTSITTDYLEVRGLRSDDTAVYYCARGGDDYSFDHWGQGTLVTVSSGGGGSGGGGSGGGGSSYELTQPPSASGTTGQRVTISCSGSSSNIGSNTVNWYQQLPGTAPKLLIYSNNQRPSGVPDRLSGSKSGTSASLAISGLQSEDEADYYCAAWDARLTGPLFGGGTKLSVLRQPKAAPSAAAEQKLISEEDL
notes: also called 71 scFv; antibody 71
B7 was tested, and the Ka [3] was 3.64e+07 M⁻¹, the Kd [3] was 27.5 nM and the koff [3] was 0.00258 s⁻¹. For the same binder, the kon [3] was 93900 M⁻¹ s⁻¹.

B8: scFv 73 (scFv)
scFv: MAQVQLVQSGAEVKKPGASVKVSCKASGYTFSGYSTHWLRQVPGQGLEWIGWDNPSSGDTTYAENFRGRVTLTRDTSITTDYLEVRGLRSDDTAVYYCARGGDDYSFDHWGQGTLVTVSSGGGGSGGGGSGGGGSSYELTQPPSASGTPGQRVTISCSGSSSNIGSNTVNWYQQLPGTAPKLLIYSNNQRPSGVPDRFSGSKSGTSASLAISGLQSEDEADYYCAAWDARLTGPLFGGGTKLSVLRQPKAAPSAAAEQKLISEEDL
notes: also called 73 scFv; antibody 73
B8 gave a Ka [3] of 2.3e+08 M⁻¹, a Kd [3] of 4.35 nM and a koff [3] of 0.00225 s⁻¹. It also gave a kon [3] of 517000 M⁻¹ s⁻¹.

B9: scFv 84 (scFv)
scFv: MAQVQLVQSGAEVKKPGASVKVSCKASGYTFSGYSTHWLRQVPGQGLEWIGWDNPSSGDTTYAENFRGRVTLTRDTSITTDYLEVRGLRSDDTAVYYCARGGDDYSFDHWGQGTLVTVSSGGGGSGGGGSGGGGSQSVLTQPPSVSVAPGKTARIPCGGNNSGTKSVHWYQQKPGQAPVLVIYDDRVRPSGIPERFSGSNSGDTATLTISRVAAGDEADYYCQVSDGSGDPPTWVFGGGTRLTVLGQPKAAPSAAAEQKLISEEDL
notes: also called 84 scFv; antibody 84
With B9 the Ka [3] was 2.65e+07 M⁻¹, the Kd [3] was 37.8 nM and the koff [3] was 0.00685 s⁻¹. It also gave a kon [3] of 181000 M⁻¹ s⁻¹.

B10: scFv-Fc 15 (Fc fusion)
chain: QVQLVQSGAEVKKPGASVKVSCKASGYTFSGYSTHWLRQVPGQGLEWIGWDNPSSGDTTYAENFRGRVTLTRDTSITTDYLEVRGLRSDDTAVYYCARGGDDYSFDHWGQGTLVTVSSGGGGSGGGGSGGGGSQSALTQPASVSGSPGQSITISCTGTNSDVGIYNLVSWYQQHPGKAPKLMIYDVSNRPSGVSSRFSGSNSGNTATLTISGLQAEDEADYYCSAHAGDNTQFGGGTKLTVLS
notes: also called 15 scFv-Fc
In the case of B10, the “PRNT80 titer (µg/ml), plaque reduction neutralization of WNV on Vero cells” value [2] is reported as 1.25 µg/mL and the binding result [1] is reported as “no binding”.

B11: scFv-Fc 11 (Fc fusion)
chain: QVQLVQSGAEVKKPGASVKVSCKASGYTFSGYSTHWLRQVPGQGLEWIGWDNPSSGDTTYAENFRGRVTLTRDTSITTDYLEVRGLRSDDTAVYYCARGGDDYSFDHWGQGTLVTVSSGGGGSGGGGSGGGGSSSELTQDPAVSVALGQTVRITCRGDSLRSYYASWYQQKPGQAPVLVIYGENNRPSGIPDRFSGSSSGDTASLTITGAQAEDEADYYCNSRDSSDHLLLFGGGTKL
notes: also called 11 scFv-Fc
B11 was tested, and the “PRNT80 titer (µg/ml), plaque reduction neutralization of WNV on Vero cells” value [2] was 1.25 µg/mL and the binding result [1] was “no binding”.

B12: 84 scFv-Fc (Fc fusion)
chain: QVQLVQSGAEVKKPGASVKVSCKASGYTFSGYSTHWLRQVPGQGLEWIGWDNPSSGDTTYAENFRGRVTLTRDTSITTDYLEVRGLRSDDTAVYYCARGGDDYSFDHWGQGTLVTVSSGGGGSGGGGSGGGGSQSVLTQPPSVSVAPGKTARIPCGGNNSGTKSVHWYQQKPGQAPVLVIYDDRVRPSGIPERFSGSNSGDTATLTISRVAAGDEADYYCQVSDGSGDPPTWVFGGGTRLTVL
notes: also called scFv-Fc 84
In the case of B12, the “PRNT80 titer (µg/ml), plaque reduction neutralization of WNV on Vero cells” value [2] is reported as 12.5 µg/mL and the binding result [1] is reported as “no binding”.

B13: scFv 79 (scFv)
scFv: MAQVQLVQSGAEVKKPGSSVKVSCKASGGTFSSYAISWVRQAPGQGLEWMGWMNSNTGDTGYAQKFQGRVTMTRNTSTSTAYMELSSLRSEDTAVYYCAKISNYHYYAMDVWGQGTLVTVSSGGGGSGGGGSGGGGSLPVLTQPPSASGTSGQTVTISCSGGSSNIGSHLVTWYQQFPGTAPKVLIHTNDQRPSGVPDRISGSKSGTSASLAISGLQSDDEGDYYCAAWDDSLNGYVFGTGTKVTVLGQPKATPSAAAEQKLISEEDL
notes: also called 79 scFv; antibody 79
In the case of B13, the “EC50 (read off the curve)” value [4] is reported as ~0.4 mg/L, the Ka [3] is reported as 1.87e+08 M⁻¹ and the Kd [3] is reported as 5.35 nM. The koff [3] was 0.00067 s⁻¹ and the kon [3] was 125000 M⁻¹ s⁻¹.

B14: 79 scFv-Fc (Fc fusion)
chain: QVQLVQSGAEVKKPGSSVKVSCKASGGTFSSYAISWVRQAPGQGLEWMGWMNSNTGDTGYAQKFQGRVTMTRNTSTSTAYMELSSLRSEDTAVYYCAKISNYHYYAMDVWGQGTLVTVSSGGGGSGGGGSGGGGSLPVLTQPPSASGTSGQTVTISCSGGSSNIGSHLVTWYQQFPGTAPKVLIHTNDQRPSGVPDRISGSKSGTSASLAISGLQSDDEGDYYCAAWDDSLNGYVFGTGTKVTVLG
notes: also called scFv-Fc 79; antibody 79 (scFv-Fc)
For B14, the “PRNT80 titer (µg/ml), plaque reduction neutralization of WNV on Vero cells” value [2] was 5 µg/mL, the binding result [1] was “no binding” and the Ka [5] was 7.34e+10 M⁻¹. It also gave a Kd [5] of 0.0136 nM, a koff [5] of 3.58e-07 s⁻¹ and a kon [5] of 26200 M⁻¹ s⁻¹.

B15: scFv 15 (scFv)
scFv: MAQVQLVQSGAEVKKPGASVKVSCKASGYTFSGYSTHWLRQVPGQGLEWIGWDNPSSGDTTYAENFRGRVTLTRDTSITTDYLEVRGLRSDDTAVYYCARGGDDYSFDHWGQGTLVTVSSGGGGSGGGGSGGGGSQSALTQPASVSGSPGQSITISCTGTNSDVGIYNLVSWYQQHPGKAPKLMIYDVSNRPSGVSSRFSGSNSGNTATLTISGLQAEDEADYYCSAHAGDNTQFGGGTKLTVLSQPKAAPSAAAEQKLISEEDL
notes: also called 15 scFv; antibody 15
For B15, the “EC50 (read off the curve)” value [4] was ~0.3 mg/L, the Ka [3] was 1.04e+08 M⁻¹ and the Kd [3] was 9.65 nM. It also gave a koff [3] of 0.00128 s⁻¹ and a kon [3] of 133000 M⁻¹ s⁻¹.
